This is an account of results in patent US20190300577A1.

The target of assay [1] is recombinant human P-selectin Fc chimera (human) (UniProt P16109). Kind of assay: comparator value given with the Biacore results; method not stated.
For assay [2], the target named is recombinant human L-selectin Fc chimera (human) (UniProt P14151). Description: flow cytometry; inhibition of human L-selectin Fc chimera binding to human U-937 cells. On the technique in general: In flow cytometry, cells or beads pass a laser one at a time.
For assay [3], the target named is recombinant human P-selectin Fc chimera (human) (UniProt P16109). Kind of assay: flow cytometry; inhibition of human P-selectin Fc chimera binding to human U-937 cells.
Assay [4] has as its target recombinant mouse P-selectin Fc chimera (mouse) (UniProt Q01102). Kind of assay: flow cytometry; inhibition of mouse P-selectin Fc chimera (2 µg/mL) binding to murine PMN.
Assay [5] has the same target. Description: Biacore; biotinylated glycopeptide on streptavidin chip, P-sel-Ig flowed. A general note: In SPR one partner is held on a chip, and binding of the other changes the refractive index at the surface.
For assay [6], the target named is recombinant human P-selectin Fc chimera (human) (UniProt P16109). The description is as above.
Assay [7] shares this target. Kind of assay: Biacore; biotinylated glycopeptide on streptavidin chip, P-sel-Ig (2.5 to 60 µg/mL) flowed.
Assay [8] deals with recombinant mouse P-selectin Fc chimera (mouse) (UniProt Q01102). Kind of assay: Biacore; biotinylated glycopeptide captured on a streptavidin chip, mP-sel-Ig flowed over (trace shown at 20 µg/ml) [lower middle panel 'mP-sel-Ig (20 µg/ml)' (E in the legend].
Assay [9] has as its target recombinant human P-selectin Fc chimera (human) (UniProt P16109). Kind of assay: flow cytometry; inhibition of human P-selectin Fc chimera binding to human peripheral blood PMN.
In the next assay the target is selectins on endothelium. Description: cell-based or functional assay.
The target of assay [10] is recombinant human P-selectin Fc chimera (human) (UniProt P16109). Description: flow cytometry; inhibition of human P-selectin Fc chimera binding to human peripheral blood monocytes.
In assay [11] the target is recombinant mouse L-selectin Fc chimera (mouse) (UniProt P18337). Description: flow cytometry; inhibition of mouse L-selectin Fc chimera binding to murine neutrophils.
Chain of recombinant mouse L-selectin Fc chimera (mouse) (P18337 39-332, change not shown): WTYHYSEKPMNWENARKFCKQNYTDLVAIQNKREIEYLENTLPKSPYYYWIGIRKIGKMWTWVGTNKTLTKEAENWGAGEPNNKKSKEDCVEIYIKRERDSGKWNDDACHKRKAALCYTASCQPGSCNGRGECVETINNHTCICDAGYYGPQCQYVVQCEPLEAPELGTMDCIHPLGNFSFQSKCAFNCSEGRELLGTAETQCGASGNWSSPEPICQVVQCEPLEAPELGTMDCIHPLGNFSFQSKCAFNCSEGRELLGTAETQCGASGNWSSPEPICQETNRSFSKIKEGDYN

Chain of recombinant human P-selectin Fc chimera (human) (P16109 42-771, stated change not applied): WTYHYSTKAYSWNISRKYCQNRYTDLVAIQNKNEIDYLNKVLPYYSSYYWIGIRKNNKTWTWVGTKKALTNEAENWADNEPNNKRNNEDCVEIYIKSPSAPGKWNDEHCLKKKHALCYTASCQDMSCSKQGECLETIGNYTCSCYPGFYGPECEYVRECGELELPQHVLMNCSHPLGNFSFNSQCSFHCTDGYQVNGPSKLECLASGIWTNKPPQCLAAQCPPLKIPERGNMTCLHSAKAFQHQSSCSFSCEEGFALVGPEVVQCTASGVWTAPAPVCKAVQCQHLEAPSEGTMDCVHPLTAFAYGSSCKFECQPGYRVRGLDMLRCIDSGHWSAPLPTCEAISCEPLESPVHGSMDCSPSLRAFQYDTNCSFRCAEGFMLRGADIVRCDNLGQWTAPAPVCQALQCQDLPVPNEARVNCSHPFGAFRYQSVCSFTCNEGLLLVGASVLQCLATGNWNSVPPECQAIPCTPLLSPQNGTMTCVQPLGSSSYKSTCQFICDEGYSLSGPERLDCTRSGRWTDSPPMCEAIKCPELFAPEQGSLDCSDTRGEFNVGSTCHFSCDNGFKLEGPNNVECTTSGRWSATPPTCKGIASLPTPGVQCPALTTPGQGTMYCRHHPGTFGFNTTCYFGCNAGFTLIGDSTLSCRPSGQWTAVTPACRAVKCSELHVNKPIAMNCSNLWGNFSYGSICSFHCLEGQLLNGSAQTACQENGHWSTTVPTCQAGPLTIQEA
Chain of recombinant mouse P-selectin Fc chimera (mouse) (Q01102 42-709, change not shown): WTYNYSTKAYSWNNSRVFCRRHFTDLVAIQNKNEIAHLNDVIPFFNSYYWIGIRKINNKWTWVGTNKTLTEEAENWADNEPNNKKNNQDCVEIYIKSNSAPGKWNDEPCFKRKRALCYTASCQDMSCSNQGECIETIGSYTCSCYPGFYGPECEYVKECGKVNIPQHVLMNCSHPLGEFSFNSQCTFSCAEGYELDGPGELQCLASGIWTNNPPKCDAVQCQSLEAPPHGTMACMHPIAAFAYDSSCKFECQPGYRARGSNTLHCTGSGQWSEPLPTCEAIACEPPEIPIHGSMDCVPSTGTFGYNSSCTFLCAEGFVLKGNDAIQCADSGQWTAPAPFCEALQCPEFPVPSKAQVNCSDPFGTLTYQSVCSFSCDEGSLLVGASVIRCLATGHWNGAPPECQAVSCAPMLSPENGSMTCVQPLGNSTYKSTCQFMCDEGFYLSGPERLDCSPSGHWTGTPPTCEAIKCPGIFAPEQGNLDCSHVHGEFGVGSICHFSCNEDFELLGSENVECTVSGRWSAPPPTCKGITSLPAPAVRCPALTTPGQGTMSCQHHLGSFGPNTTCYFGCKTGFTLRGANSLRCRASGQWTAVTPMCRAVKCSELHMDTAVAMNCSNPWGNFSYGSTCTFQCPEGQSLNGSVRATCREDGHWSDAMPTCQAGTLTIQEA
Chain of recombinant human L-selectin Fc chimera (human) (P14151 39-332, change not shown): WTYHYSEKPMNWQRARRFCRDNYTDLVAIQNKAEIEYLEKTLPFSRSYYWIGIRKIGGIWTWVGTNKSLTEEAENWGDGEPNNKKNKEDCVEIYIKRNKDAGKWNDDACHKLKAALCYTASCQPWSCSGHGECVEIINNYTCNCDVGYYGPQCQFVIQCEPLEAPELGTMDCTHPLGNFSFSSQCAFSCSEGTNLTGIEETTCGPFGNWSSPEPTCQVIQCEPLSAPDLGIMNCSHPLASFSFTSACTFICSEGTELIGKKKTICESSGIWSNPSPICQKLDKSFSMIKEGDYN

By Kd is commonly meant the equilibrium constant for the complex coming apart. In the case of “native PSGL-1 (from UniProt Q14242 42-412) (ligand)”, the Kd in [1] came to 0.073 µM.

A word on the IC50: it is the midpoint of a concentration-inhibition curve. In general, kon refers to a measure of how fast the partners come together. Regarding GSnP-6 (peptide), the IC50 in assay [2] was 30 µM; in assay [3], 8 µM; in [4], 15 µM; in assay [9], 30 µM; in assay [10], 30 µM; in assay [11], over 50 µM. Further, the fold difference of Kd against human P-selectin in assay [5] is 9 fold. In addition, the association rate constant (kon) in [5] came out at 49000 M⁻¹ s⁻¹; in assay [6] it was 310000 M⁻¹ s⁻¹. The results for the Kd in assay [7] and in assay [8] were 0.022 µM and 0.186 µM, respectively. For the same substance, the mean leukocyte rolling velocity (intravital microscopy, murine cremaster venules, GSnP-6 IV) with selectins on endothelium was 74.9 µm/s.
